From US20020142976A1, “Materials and methods for modulating differentiation” (ICOS Corporation, priority 1998, published 2002)

Target: T1, ATR (Mus musculus, UniProt Q9JKK8)
T1 construct: from tissue; host or cells: mouse testes extract
Assay: MyoD phosphorylation (ATR kinase) assay with MyoD-derived peptide substrates
Type: biochemical
Conditions: in vitro kinase assay, 32P-γATP, room temperature 40 minutes
Method: ATR was captured on a 96 well plate previously coated first with goat anti-mouse antibodies (Pierce) and secondly with anti-ATR antibody 224C. A hybridoma which secretes antibody 224C was deposited with the American Type Culture Collection (ATCC), 12301 Parklawn Drive, Rockville, Md. 20852 on Nov. 7, 1996 and assigned ATCC Accession Nos. HB 12233. The 224C antibody was added to the plate at a concentration of […] in BT blocking buffer and incubated for at least 30 hours at 4° C. The wells were washed with TBS containing 0.05% Tween® 20 and mouse testes extract (prepared as described in Example 6 of WO 97/18323 published May 22, 1997 from International Application No. PCT/US96/19337, incorporated herein by reference) was added. […]
The supernatant, containing the ^32P-labeled peptide was transferred to P81 phosphocellulose paper, the paper was washed three times with 100 mM phosphoric acid (to remove unincorporated label) and once with ethanol, and Cerenkov radiation (in counts per minute, cpm) was counted in a scintillation counter.
MyoD is a 319 amino acid transcription factor that is often phosphorylated in cells. As described in Example 6 (of WO 97/18323), it has been determined that ATR phosphorylates MyoD in in vitro kinase assays and the target serine residue in myoD has been identified using a MyoD deletion peptide, B-HLH containing amino acids 102 through 165. […]

T1 sequence (Q9JKK8 whole entry): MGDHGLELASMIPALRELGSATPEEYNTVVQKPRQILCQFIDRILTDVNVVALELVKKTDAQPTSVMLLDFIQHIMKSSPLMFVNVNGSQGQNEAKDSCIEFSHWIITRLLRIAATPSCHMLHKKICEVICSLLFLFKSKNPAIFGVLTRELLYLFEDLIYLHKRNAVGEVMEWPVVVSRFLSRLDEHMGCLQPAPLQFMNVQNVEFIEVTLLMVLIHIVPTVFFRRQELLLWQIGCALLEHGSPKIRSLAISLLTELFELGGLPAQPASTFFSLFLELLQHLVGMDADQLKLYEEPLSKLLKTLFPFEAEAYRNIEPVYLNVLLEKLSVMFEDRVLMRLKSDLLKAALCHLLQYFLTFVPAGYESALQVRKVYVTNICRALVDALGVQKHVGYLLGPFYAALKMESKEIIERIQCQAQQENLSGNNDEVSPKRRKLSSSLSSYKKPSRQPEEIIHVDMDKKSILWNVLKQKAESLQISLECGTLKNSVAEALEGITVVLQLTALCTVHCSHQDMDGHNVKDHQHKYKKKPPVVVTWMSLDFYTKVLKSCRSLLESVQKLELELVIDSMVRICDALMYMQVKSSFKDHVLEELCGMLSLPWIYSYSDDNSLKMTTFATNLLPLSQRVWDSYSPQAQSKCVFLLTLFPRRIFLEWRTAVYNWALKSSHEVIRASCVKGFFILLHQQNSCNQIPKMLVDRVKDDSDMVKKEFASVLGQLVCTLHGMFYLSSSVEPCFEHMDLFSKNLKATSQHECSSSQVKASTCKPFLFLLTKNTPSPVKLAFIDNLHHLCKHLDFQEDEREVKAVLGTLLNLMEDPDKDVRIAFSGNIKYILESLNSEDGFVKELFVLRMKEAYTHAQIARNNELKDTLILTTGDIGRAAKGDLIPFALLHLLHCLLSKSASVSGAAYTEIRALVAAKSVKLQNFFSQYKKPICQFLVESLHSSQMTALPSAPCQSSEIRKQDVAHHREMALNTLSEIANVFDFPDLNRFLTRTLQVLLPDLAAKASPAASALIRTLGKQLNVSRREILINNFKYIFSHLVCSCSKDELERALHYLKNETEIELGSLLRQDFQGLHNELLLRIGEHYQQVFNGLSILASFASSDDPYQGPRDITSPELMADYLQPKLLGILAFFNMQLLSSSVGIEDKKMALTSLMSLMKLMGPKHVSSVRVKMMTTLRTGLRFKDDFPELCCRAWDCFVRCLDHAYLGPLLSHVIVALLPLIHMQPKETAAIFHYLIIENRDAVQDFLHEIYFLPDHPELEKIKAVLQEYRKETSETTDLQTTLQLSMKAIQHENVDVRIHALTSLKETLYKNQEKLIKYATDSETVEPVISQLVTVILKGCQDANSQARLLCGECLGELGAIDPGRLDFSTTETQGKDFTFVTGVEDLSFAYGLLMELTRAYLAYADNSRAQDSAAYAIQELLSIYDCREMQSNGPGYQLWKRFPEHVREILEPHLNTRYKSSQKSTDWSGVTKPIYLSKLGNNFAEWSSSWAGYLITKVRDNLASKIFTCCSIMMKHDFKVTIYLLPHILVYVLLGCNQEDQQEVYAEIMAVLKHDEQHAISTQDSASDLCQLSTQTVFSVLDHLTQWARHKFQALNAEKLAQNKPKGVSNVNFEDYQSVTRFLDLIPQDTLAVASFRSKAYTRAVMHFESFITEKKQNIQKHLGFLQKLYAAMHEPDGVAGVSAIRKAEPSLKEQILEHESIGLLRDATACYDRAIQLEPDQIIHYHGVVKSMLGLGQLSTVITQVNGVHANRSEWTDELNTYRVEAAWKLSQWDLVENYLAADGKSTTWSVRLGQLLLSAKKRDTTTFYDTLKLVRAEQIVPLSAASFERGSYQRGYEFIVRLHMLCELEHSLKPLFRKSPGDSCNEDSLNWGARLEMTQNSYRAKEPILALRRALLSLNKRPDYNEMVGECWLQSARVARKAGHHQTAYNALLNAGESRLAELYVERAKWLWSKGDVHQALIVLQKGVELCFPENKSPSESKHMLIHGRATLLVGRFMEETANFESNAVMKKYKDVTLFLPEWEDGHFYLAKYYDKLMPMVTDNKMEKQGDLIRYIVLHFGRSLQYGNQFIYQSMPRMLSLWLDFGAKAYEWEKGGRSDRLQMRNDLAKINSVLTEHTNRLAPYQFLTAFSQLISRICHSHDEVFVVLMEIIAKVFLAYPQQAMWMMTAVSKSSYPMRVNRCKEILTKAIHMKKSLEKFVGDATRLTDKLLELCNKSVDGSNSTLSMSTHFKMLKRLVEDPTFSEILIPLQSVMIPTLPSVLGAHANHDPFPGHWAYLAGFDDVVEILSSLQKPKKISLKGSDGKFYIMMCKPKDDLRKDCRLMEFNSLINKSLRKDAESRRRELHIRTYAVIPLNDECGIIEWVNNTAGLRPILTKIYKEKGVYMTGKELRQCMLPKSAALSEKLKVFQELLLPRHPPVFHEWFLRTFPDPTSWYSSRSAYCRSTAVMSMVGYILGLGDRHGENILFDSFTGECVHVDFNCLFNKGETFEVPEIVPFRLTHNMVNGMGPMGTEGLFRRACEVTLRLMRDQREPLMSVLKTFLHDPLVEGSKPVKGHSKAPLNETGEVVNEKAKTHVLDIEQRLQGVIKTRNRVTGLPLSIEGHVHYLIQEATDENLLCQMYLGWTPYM
T1 sequence (Q8BMG1 whole entry partner): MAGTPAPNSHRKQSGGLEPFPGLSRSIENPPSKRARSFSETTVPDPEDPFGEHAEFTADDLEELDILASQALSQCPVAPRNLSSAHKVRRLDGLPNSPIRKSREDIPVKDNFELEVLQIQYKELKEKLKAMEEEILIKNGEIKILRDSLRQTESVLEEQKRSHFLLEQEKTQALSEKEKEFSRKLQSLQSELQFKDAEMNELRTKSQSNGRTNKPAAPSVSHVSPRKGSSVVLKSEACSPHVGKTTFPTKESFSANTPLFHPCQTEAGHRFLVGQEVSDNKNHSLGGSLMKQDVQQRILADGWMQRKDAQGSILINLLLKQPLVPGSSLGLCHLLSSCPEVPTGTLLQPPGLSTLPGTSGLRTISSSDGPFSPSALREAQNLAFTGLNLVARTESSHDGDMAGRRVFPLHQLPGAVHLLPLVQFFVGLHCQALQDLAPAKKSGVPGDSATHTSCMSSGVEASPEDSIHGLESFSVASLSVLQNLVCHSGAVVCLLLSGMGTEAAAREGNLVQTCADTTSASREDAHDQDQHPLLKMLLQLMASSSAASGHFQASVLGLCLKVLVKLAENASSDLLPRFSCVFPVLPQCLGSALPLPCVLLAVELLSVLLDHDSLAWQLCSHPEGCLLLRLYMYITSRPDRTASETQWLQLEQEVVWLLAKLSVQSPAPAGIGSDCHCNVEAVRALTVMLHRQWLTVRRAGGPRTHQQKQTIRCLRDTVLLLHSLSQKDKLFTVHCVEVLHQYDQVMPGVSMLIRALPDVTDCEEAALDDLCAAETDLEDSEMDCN

phosphorylation of peptide by ATR: phosphorylated
Substance: NH2-Leu-Lys-Arg-Cys-Thr-Ser-Ser-Asn-Pro-Asn-Gln-Arg-Leu-Pro-Lys-COOH (H-LKRCTSSNPNQRLPK-OH) [IDH22]
